Assay results: PMC9079618, “Evaluating Ylehd, a recombinant epoxide hydrolase from Yarrowia lipolytica as a potential biocatalyst for the resolution of benzyl glycidyl ether” (RSC Advances, 2018)

Assays:
Assay in all cases: purified protein
[1] = system: c1ccc(OCC2CO2)cc1; settings: 50 mM Tris pH 8.0, 30 °C, 30 min, 2 μg protein
[2] = system: c1ccc(OC[C@@H]2CO2)cc1; settings: 50 mM Tris pH 8.0, 30 °C, 30 min, 2 μg protein
[3] = system: c1ccc(OC[C@H]2CO2)cc1; settings: 50 mM Tris pH 8.0, 30 °C, 30 min, 2 μg protein
[4] = system: c1ccc(COCC2CO2)cc1; assay type: biochemical, Yarrowia lipolytica; settings: 50 mM Tris pH 8.0, 30 °C, 30 min, 2 μg protein
[5] = system: c1ccc(COC[C@@H]2CO2)cc1; assay type: biochemical, Yarrowia lipolytica; settings: 50 mM Tris pH 8.0, 30 °C, 30 min, 2 μg protein
[6] = system: c1ccc(COC[C@H]2CO2)cc1; assay type: biochemical, Yarrowia lipolytica; settings: 50 mM Tris pH 8.0, 30 °C, 30 min, 10 μg protein

Ylehd (Yarrowia lipolytica)
Km [1]: 600 ± 9 µM
kcat [1]: 7.34 s⁻¹
kcat/Km [1]: 12200 M⁻¹ s⁻¹
Km [2]: 930 ± 71 µM
kcat [2]: 15.7 s⁻¹
kcat/Km [2]: 16600 M⁻¹ s⁻¹
Km [3]: 1320 ± 45 µM
kcat [3]: 33.8 s⁻¹
kcat/Km [3]: 25500 M⁻¹ s⁻¹
Km [4]: 150 ± 2 µM
kcat [4]: 5.73 ± 0.54 s⁻¹
kcat/Km [4]: 38200 ± 1080 M⁻¹ s⁻¹
Km [5]: 270 ± 24 µM
kcat [5]: 12 ± 0.97 s⁻¹
kcat/Km [5]: 44700 ± 870 M⁻¹ s⁻¹
Km [6]: 800 ± 10 µM
kcat [6]: 3.45 ± 0.089 s⁻¹
kcat/Km [6]: 4310 ± 70 M⁻¹ s⁻¹
